These results are taken from paper PMC8509203, “Members of the GADD45 Protein Family Show Distinct Propensities to form Toxic Amyloid-Like Aggregates in Physiological Conditions” (International Journal of Molecular Sciences, 2021).

Data set [1] has as its target MKK7 kinase domain (Homo sapiens) (UniProt O14733). The experiment in a line: SPR. Particulars: cited from earlier work.
Data set [2] concerns the molecule itself. As to the kind of experiment: SEC-MALS; SEC-LS, Superdex S200 10/30 with miniDAWN TREOS; 0.5-1.0 mg loaded; 20 mM Tris-HCl pH 7.5, 100 mM NaCl, 5 mM DTT, 5% glycerol (the results and the legend name only 5 mM DTT in 20 mM Tris-HCl pH 7.5); oligomeric state of the native protein. Background: In gel filtration, larger molecules generally elute earlier.
The target of data set [3] is T1, kinase domain of human MKK7 (mitogen-activated protein kinase kinase 7) (human, UniProt O14733 120-380).
T1 construct: MKK7, human, kinase domain; also called MKK7_KD; source: recombinant, obtained as His-fusion protein as previously reported
T1 sequence (looked up): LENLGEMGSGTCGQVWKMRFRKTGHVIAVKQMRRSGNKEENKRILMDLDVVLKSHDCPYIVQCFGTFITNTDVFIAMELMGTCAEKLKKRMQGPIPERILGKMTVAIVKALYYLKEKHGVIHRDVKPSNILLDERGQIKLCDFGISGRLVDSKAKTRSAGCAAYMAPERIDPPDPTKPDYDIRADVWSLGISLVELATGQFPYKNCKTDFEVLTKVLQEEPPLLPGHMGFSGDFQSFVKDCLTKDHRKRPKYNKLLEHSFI
The experiment in a line: BLI; biotinylated GADD45 proteins immobilised on super streptavidin (SSA) biosensors (2.5 nm), Octet RED96; MKK7_KD in solution at 9-300 nM; 0.01 M HEPES pH 7.4, 0.15 M NaCl, 3 mM EDTA, 0.005% Surfactant P20, 2 mM DTT; 1:1 binding model. Particulars: both partners purified. (Biolayer interferometry detects binding as a change in optical thickness at a sensor tip.)

By Kd is commonly meant a measure of binding affinity in units of concentration. Regarding GADD45β (from UniProt O75293), the Kd in data set [1] is 6 nM.

B1: GADD45γ (growth arrest and DNA damage-inducible 45 gamma) (natural protein, human, UniProt O95257 1-159, looked up)
chain: MTLEEVRGQDTVPESTARMQGAGKALHELLLSAQRQGCLTAGVYESAKVLNVDPDNVTFCVLAAGEEDEGDIALQIHFTLIQAFCCENDIDIVRVGDVQRLAAIVGAGEEAGAPGDLHCILISNPNEDAWKDPALEKLSLFCEESRSVNDWVPSITLPE
modifications: biotin (EZ-Link Sulfo-NHS-LC-Biotinylation Kit), in the BLI experiment only
notes: GADD45γ, human; gene purchased from Sigma Aldrich, cloned into pETM-13 with BamHI and XhoI; Dimeric by SEC-LS; The same construct was used without biotin in SEC-LS and biotinylated in BLI; source: E. coli BL21(DE3), purified (Ni2+-NTA, Superdex 200 SEC)
Usually stoichiometry N stands for a count of units in the complex or per binding partner. For the molecule B1, the “stoichiometry N” value in data set [2] came out at 2.

B2: GADD45β (growth arrest and DNA damage-inducible 45 beta) (natural protein, human, UniProt O75293 1-160, looked up)
chain: MTLEELVACDNAAQKMQTVTAAVEELLVAAQRQDRLTVGVYESAKLMNVDPDSVVLCLLAIDEEEEDDIALQIHFTLIQSFCCDNDINIVRVSGMQRLAQLLGEPAETQGTTEARDLHCLLVTNPHTDAWKSHGLVEVASYCEESRGNNQWVPYISLQER
modifications: biotin (EZ-Link Sulfo-NHS-LC-Biotinylation Kit), in the BLI experiment only
notes: GADD45β, human; cloned into pET-28a+ as previously reported; Monomeric by SEC-LS; The same construct was used without biotin in SEC-LS and biotinylated in BLI; also called Human GADD45β; source: E. coli BL21(DE3), purified (Ni2+-NTA, Superdex 200 SEC)
On to B2, for which, in data set [3], the Kd turned out to be 2 nM.
